Experimental data reported in article PMC4847008.

Biological target: MT1-MMPmCh ΔDKV (UniProt P50281)

- tyrosine phosphorylation (4G10 blot) of precipitated MT1-MMPmCh by recombinant GST-LIMK1 in an in vitro kinase assay, ΔDKV against WT: 60 % decrease
Substance: LIM Kinase-1 (from UniProt P53667 1-647) (natural protein)
